Several values for one entry are separate records, joined by “and”; a condition that tells them apart may be missing. Identical values can stand only once.
How the values were obtained:
Type in all cases: cell-based, human
[1] = tested on: hESC-derived retinal progenitor cells; assay: Differentiation into photoreceptor cells with Wnt3a or its inhibitor Dkk-1, without Shh and retinoic acid; immunofluorescent staining on Day 29
Experimental: In order to examine the function of the Wnt signaling pathway activator on differentiation from hESCs into retinal cells, particularly photoreceptor cells, cells were cultured in the presence of a Wnt signaling pathway antagonist. The Wnt/Frizzled signaling pathway inhibitor Dkk-1 (R&D Systems, Minneapolis, Minn., USA) was added at a concentration of 10 ng/ml, 100 ng/ml or 1 μg/ml on day 13, followed by culturing the cells for an additional 16 days. While the antagonist concentrations were maintained uniformly over the culture time period, the Wnt signaling pathway activator was assayed for activity. Dkk-1 was dissolved in 0.1% bovine serum albumin (BSA, Sigma-Aldrich) in PBS before use.
According to a protocol for differentiation into retinal cells, Wnt3a and Dkk-1 were added on Day 13 at the following concentrations: 50 ng/ml Wnt3a (group I), free of both Wnt3a and Dkk-1 (group II), 10 ng/ml Dkk-1 (group III), 100 ng/ml Dkk-1 (group IV), and […] Dkk-1 (group V). In each medium, the cells were cultured to Day 29. In this experiment, none of the other major differentiation factors Shh and RA were used.
On Day 29, the cells which had been cultured on poly-D-lysine/laminin-coated, 8-well slides (BD Biosciences) under the conditions of Wnt3a and Dkk-1 (groups I-V) were fixed with 4% paraformaldehyde (Sigma-Aldrich), after which non-specific reactions were blocked with PBS containing 3% BSA (Jackson Immunoresearch Laboratory, Bar Harbor, Me., USA) and 0.25% Triton X-100 (Sigma-Aldrich).
(§1) After being blocked for 90 min, the slides in each differentiation step were incubated overnight at 4° C. with the following antibodies specific for cells of each differentiation step: rabbit-Blue-opsin (1:500, Chemicon), sheep-Chx10 (1:100, Chemicon), rabbit-Crx (1:200, Santa Cruz Biotechnology, Santa Cruz, Calif., USA), rabbit-GFAP (1:200, Invitrogen), mouse-human specific mitochondria (1:50, Chemicon), rabbit-human specific mitochondria (1:200, Chemicon), mouse-Islet1 (1:10, Developmental Studies Hydroma Bank, DSHB; Iowa City, Iowa, USA), mouse-Ki67 (1:100, Vector Laboratories, Peterborough, England), mouse-Mitf (1:1,000, abcam, Cambridge, Mass., USA), mouse-nestin (1:250, BD Sciences), rabbit-neurofilament-200 (1:1,000, Sigma-Aldrich), rabbit-Otx2 (1:100, abcam), rabbit-Pax2 (1:250, abcam), mouse-Pax6 (1:2, DSHB), mouse-peripherin2 (1:500, GenScript, Piscataway, N.J., USA), rabbit-Rax (1:250, abcam), rabbit-recoverin (1:1,000, Chemicon), retinal pigment epithelium 65 (RPE65, 1:100, Chemicon), rabbit-rhodopsin (1:500, Sigma-Aldrich), mouse-rhodopsin (1:500, Ret-P1, Lab Vision, Fremont, Calif., USA), mouse-rhodopsin (1:2,000, Ret-P1, Sigma-Aldrich), mouse-rom1 (1:50, ABR-Affinity Bioreagents, Golden, Colo., USA), rabbit-PDE6 beta (1:100, abcam), rabbit-phosducin (1:500, Santa Cruz Biotechnology), mouse-PKC-alpha (1:500, Sigma-Aldrich), mouse-Prox1 (1:2,000, Chemicon), mouse-Sox2 (1:250, R&D Systems), rabbit-synaptophysin (1:2,000, Santa Cruz Biotechnology), and rabbit-ZO-1 (1:100, Zymed-Invitrogen).
Before use, these antibodies were diluted in a PBS solution containing 1% BSA and 0.25% Triton X-100. The cells were washed three times for 5 min with PBS and incubated at room temperature for 2 hrs with species-specific secondary antibody conjugated with Cy3 (1:800, Jackson Immunoresearch Laboratory) or Alexa488 (1:500, Invitrogen). A standard material suitable for the primary and the secondary antibody was used to examine non-specific staining or interaction between the antibodies. Afterwards, the cells were washed three times for 5 min with PBS, counterstained with DAPI (4,6-diamidino-2 phenylindole) and mounted in Vectashield (Vector Laboratories), followed by visualization under an epifluorescence microscope (Nikon Eclipse, E800, Tokyo, Japan) and a confocal microscope (Leica, Leica Microsystems Inc, Bannockburn, Ill., USA or Zeiss LSM510, Carl Zeiss, Inc, Thornwood, N.Y., USA). […]

[2] = tested on: hESC-derived retinal progenitor cells; assay: Expression levels of retinal cell markers before and after Wnt3a addition (retinal progenitor cells into neural retinal progenitor cells); conditions: on Day 18; Wnt3a 50 ng/ml for 5 days from Day 13
Experimental: To differentiate the retinal progenitor cells generated in Example 3 into neural retinal progenitor cells, Dkk-1 supply was quit on day 3 after induction and a culture medium containing a combination of noggin, IGF-1, FGF2 and Wnt3a was supplied for 5 days (FIG. 1). The culture medium was composed as follows: [DMEM/F12 (Invitrogen), 1 mM L-glutamine (Invitrogen), 0.1 mM nonessential amino acids (Invitrogen), 0.1 mM mercaptoethanol (Sigma-Aldrich), 1% B27 supplement (Invitrogen), 1% N2 supplement (Invitrogen), 10 ng/ml noggin, 10 ng/ml IGF-1, 5 ng/ml FGF2, and 50 ng/ml recombinant Wnt3a (R&D Systems)].
The eye field precursors (floating aggregates) were cultured in 8-well poly-D-lysine/laminin-coated slides (BD Biosciences, Bedford, Mass.) under the same conditions that were used for differentiation into the retinal progenitor cells, the neural retinal progenitor cells, the photoreceptor cell precursors and the photoreceptor cells. The cells completely cultured in each step were fixed with 4% paraformaldehyde (Sigma-Aldrich), after which non-specific reactions were blocked with PBS containing 3% BSA (Jackson Immunoresearch Laboratory, Bar Harbor, Me., USA) and 0.25% Triton X-100 (Sigma-Aldrich).
as §1
Before use, these antibodies were diluted in a PBS solution containing 1% BSA and 0.25% Triton X-100. The cells cultured on the slides in each step were washed three times for 5 min with PBS and incubated at room temperature for 2 hrs with species-specific secondary antibody conjugated with Cy3 (1:800, Jackson Immunoresearch Laboratory) or Alexa488 (1:500, Invitrogen). A standard material suitable for the primary and the secondary antibody was used to examine non-specific staining or interaction between the antibodies. Afterwards, the cells were washed three times for 5 min with PBS, counterstained with DAPI (4,6-diamidino-2 phenylindole) and mounted in Vectashield (Vector Laboratories), followed by visualization under an epifluorescence microscope (Nikon Eclipse, E800, Tokyo, Japan) and a confocal microscope (Leica, Leica Microsystems Inc, Bannockburn, Ill., USA or Zeiss LSM510, Carl Zeiss, Inc, Thornwood, N.Y., USA).
500 cells were counted from 20 microscopic fields randomly selected at 200 magnification and evaluated for positive responses to each antibody. Positive responses to antibodies were determined after at least three evaluations. […]

[3] = tested on: hESC-derived retinal progenitor cells; assay: as above
[4] = Dkk-1 10 ng/ml (Group III), from Day 13 to Day 29, no Wnt3a, Shh, RA
[5] = Dkk-1 10 ng/ml, 100 ng/ml, 1 μg/ml
[6] = Dkk-1 100 ng/ml (Group IV), from Day 13 to Day 29, no Wnt3a, Shh, RA
[7] = Dkk-1 1 μg/ml (Group V), from Day 13 to Day 29, no Wnt3a, Shh, RA
[8] = Wnt3a 50 ng/ml (Group I), from Day 13 to Day 29, no Shh, no RA

B1: Dkk-1: recombinant Dkk-1 (R&D Systems), Wnt/Frizzled signaling pathway inhibitor (protein, UniProt O94907 32-266, looked up)
Dickkopf-related protein 1: TLNSVLNSNAIKNLPPPLGGAAGHPGSAVSAAPGILYPGGNKYQTIDNYQPYPCAEDEECGTDEYCASPTRGGDAGVQICLACRKRRKRCMRHAMCCPGNYCKNGICVSSDQNHFRGEIEETITESFGNDHSTLDGYSRRTTLSSKMYHTKGQEGSVCLRSSDCASGLCCARHFWSKICKPVLKEGQVCTKHRRKGSHGLEIFQRCYCGEGLSCRIQKDHHQASNSSRLHTCQRH
[1]; [4]
  Positive rate of Crx: 54.3 (±3.1) %
  Positive rate of Pax6: 63.9 (±0.9) %
  Positive rate of peripherin2: 27.0 (±1.0) %
  Positive rate of recoverin: 55.1 (±0.6) %
  Positive rate of rhodopsin: 49.1 (±2.0) %
[1]; [5]
  Expression level of photoreceptor cell markers Crx, recoverin, rhodopsin and peripherin2 with increasing Dkk-1 concentration: remarkably decreased
  Expression level of retinal progenitor cell marker Pax6 with increase in Dkk-1 concentration: decreased
[1]; [6]
  Positive rate of Crx: 7.4 (±1.1) %
  Positive rate of Pax6: 51.8 (±1.0) %
  Positive rate of peripherin2: 2.1 (±1.0) %
  Positive rate of recoverin: 41.5 (±1.3) %
  Positive rate of rhodopsin: 28.9 (±0.5) %
[1]; [7]
  Positive rate of Crx: 7.5 (±0.9) %
  Positive rate of Pax6: 42.1 (±2.1) %
  Positive rate of peripherin2: 0.1 (±0.1) %
  Positive rate of recoverin: 15.2 (±4.0) %
  Positive rate of rhodopsin: 11.9% and 11.9 (±3.0) %

B2: Wnt3a: recombinant Wnt3a (R&D Systems), Wnt signaling pathway activator (protein, UniProt P56704 19-352, looked up)
Protein Wnt-3a: SYPIWWSLAVGPQYSSLGSQPILCASIPGLVPKQLRFCRNYVEIMPSVAEGIKIGIQECQHQFRGRRWNCTTVHDSLAIFGPVLDKATRESAFVHAIASAGVAFAVTRSCAEGTAAICGCSSRHQGSPGKGWKWGGCSEDIEFGGMVSREFADARENRPDARSAMNRHNNEAGRQAIASHMHLKCKCHGLSGSCEVKTCWWSQPDFRAIGDFLKDKYDSASEMVVEKHRESRGWVETLRPRYTYFKVPTERDLVYYEASPNFCEPNPETGSFGTRDRTCNVSSHGIDGCDLLCCGRGHNARAERRREKCRCVFHWCCYVSCQECTRVYDVHTCK
[2]
  Expression level (positive rate) of Chx10 after Wnt3a addition: 64.5 (±1.6) %
  Expression level (positive rate) of Crx after Wnt3a addition: 80.1% and 80.1 (±0.2) %
  Expression level (positive rate) of Ki67 after Wnt3a addition: 31.5 (±0.5) %
  Expression level (positive rate) of Mitf after Wnt3a addition: 2.7 (±1.0) %
  Expression level (positive rate) of Nestin after Wnt3a addition: 18.0% and 18.0 (±1.4) %
  Expression level (positive rate) of Otx2 after Wnt3a addition: 61.5 (±0.6) %
  Expression level (positive rate) of Pax6 after Wnt3a addition: 89.1 (±2.5) %
  Expression level (positive rate) of Peripherin2 after Wnt3a addition: 13.9% and 13.9 (±2.4) %
  Expression level (positive rate) of Rax after Wnt3a addition: 98.2 (±0.9) %
  Expression level (positive rate) of Recoverin after Wnt3a addition: 68.5% and 68.5 (±2.6) %
  Expression level (positive rate) of Rhodopsin after Wnt3a addition: 52.9% and 52.9 (±3.4) %
  Expression level (positive rate) of Sox2 after Wnt3a addition: 68.1 (±1.1) %
[3]
  Pax6-positive cells with increase in Wnt3a concentration: increased in a dose-dependent manner
[1]; [8]
  Positive rate of Crx: 32.5 (±0.3) %
  Positive rate of Pax6: 82.1 (±4.0) %
  Positive rate of peripherin2: 21.5 (±0.3) %
  Positive rate of recoverin: 72.3 (±0.8) %
  Positive rate of rhodopsin: 73.8 (±0.9) %
